Our source for the binding result and Kd values is paper PMC6791870, “Switch of the interactions between the ribosomal stalk and EF1A in the GTP- and GDP-bound conformations” (Scientific Reports, 2019).

Primed or numbered codes have the meaning given here. Where no end group is shown, it is not given here. FITC′ = fluorescein isothiocyanate label

Details in all cases: both partners purified
The target of assay [1] is T1, Pyrococcus horikoshii elongation factor aEF1A (PhoEF1A) (P. horikoshii, UniProt O59153 1-428).
T1 construct: elongation factor 1-alpha (aEF1A) of Pyrococcus horikoshii; the nucleotide is named in the assay's format; also called PhoEF1A•GTP; PhoEF1A•GDP
T1 sequence: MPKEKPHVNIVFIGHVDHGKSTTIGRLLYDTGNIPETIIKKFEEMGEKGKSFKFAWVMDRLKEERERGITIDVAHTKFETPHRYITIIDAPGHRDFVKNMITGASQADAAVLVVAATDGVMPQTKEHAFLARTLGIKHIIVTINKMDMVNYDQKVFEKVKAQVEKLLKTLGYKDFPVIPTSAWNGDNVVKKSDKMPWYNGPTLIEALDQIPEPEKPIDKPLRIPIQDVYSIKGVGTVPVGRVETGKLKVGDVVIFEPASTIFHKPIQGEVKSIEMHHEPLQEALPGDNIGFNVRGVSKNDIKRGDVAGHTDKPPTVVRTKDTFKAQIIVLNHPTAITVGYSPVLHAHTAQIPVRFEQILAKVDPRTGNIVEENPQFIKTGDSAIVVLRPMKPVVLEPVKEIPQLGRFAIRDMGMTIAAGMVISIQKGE
The experiment in a line: pull-down; MBP-P1 fusion held on amylose resin; EF1A (1,000 pmol), Pelota (1,000 pmol) and equal amounts of MBP-P1 in 100 µl PD buffer (25 mM Tris-HCl pH 8.0, 200 mM NaCl, 10 mM MgCl2, 1 mM GTP), 4 °C, 90 min; eluted with 50 mM maltose; SDS-PAGE, CBB staining.

The target of assay [2] is T2, Aeropyrum pernix elongation factor aEF1A (ApeEF1A) (Aeropyrum pernix, UniProt Q9YAV0 1-437).
T2 construct: elongation factor 1-alpha (aEF1A) of Aeropyrum pernix; also called ApeEF1A•GTP; wild type ApeEF1A
T2 sequence (looked up): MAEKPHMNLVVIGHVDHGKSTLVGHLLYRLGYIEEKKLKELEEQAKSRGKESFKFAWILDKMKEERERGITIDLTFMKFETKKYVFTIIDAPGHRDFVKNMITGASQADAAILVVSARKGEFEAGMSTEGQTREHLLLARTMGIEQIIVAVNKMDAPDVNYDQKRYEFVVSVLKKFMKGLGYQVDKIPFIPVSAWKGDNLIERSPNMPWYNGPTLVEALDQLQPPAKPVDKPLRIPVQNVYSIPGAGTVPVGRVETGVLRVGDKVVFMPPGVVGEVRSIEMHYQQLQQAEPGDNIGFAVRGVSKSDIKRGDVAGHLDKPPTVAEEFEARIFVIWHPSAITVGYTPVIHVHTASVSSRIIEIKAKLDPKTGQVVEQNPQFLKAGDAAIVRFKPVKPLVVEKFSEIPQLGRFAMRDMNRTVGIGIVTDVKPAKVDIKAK
The experiment in a line: crystal structure; ApeP1C17•ApeEF1A•GTP•ApePelota complex, sitting drop vapor diffusion at 20 °C, 3.0 Å.

In assay [3] the target is T2, Aeropyrum pernix elongation factor …. The assay is described as follows: pull-down; MBP-P1 fusion held on amylose resin; EF1A (1,000 pmol), Pelota (1,000 pmol) and equal amounts of MBP-P1 in 100 µl PD buffer (25 mM Tris-HCl pH 8.0, 200 mM NaCl, 10 mM MgCl2, 1 mM GTP), 4 °C, 90 min; eluted with 50 mM maltose; SDS-PAGE, CBB staining.
In assay [4] the target is T1, Pyrococcus horikoshii elongation factor …. The assay is described as follows: fluorescence polarisation; FITC-labelled PhoP1C14 with increasing PhoEF1A•GDP complex; same assay as for the GTP complex. For orientation: Polarisation of emitted light reports the rotation of a fluorescent probe.
Assay [5] has as its target T3, PhoEF1A•GTP•PfuPelota complex (P. horikoshii | Pyrococcus furiosus, UniProt O59153 1-428; Q8U150 1-356).
T3 construct: aPelota of Pyrococcus furiosus; Complex of m2 (GTP form) and m3, titrated as a complex in fluorescence polarisation; also called aEF1A•GTP•aPelota; source: E. coli, each protein purified, then complexed with GTP
T3 sequence 1: T1 sequence
T3 sequence 2: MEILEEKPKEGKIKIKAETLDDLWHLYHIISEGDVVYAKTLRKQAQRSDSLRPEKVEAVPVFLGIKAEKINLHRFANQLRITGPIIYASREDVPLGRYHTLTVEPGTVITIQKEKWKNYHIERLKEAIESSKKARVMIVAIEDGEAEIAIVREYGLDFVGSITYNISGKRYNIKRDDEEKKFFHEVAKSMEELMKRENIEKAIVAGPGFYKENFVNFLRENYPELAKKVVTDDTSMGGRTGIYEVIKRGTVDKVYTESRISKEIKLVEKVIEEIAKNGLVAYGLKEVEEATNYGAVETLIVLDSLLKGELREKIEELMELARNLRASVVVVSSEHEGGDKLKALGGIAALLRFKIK
The experiment in a line: fluorescence polarisation; FITC-labelled peptide (50 nM) with 0-160 µM PhoEF1A•GTP•PfuPelota complex in FP buffer (20 mM HEPES-KOH pH 7.6, 10 mM MgCl2, 150 mM KCl, 0.1 mg/ml BSA), 25 °C; one site specific binding fit.

B1: Pyrococcus furiosus aPelota (PfuPelota) (natural protein, UniProt Q8U150 1-356, looked up)
chain: T3 sequence 2
notes: aPelota of Pyrococcus furiosus
For B1, the binding result in assay [1] was “binds”.

B2: Aeropyrum pernix aPelota (ApePelota) (natural protein, A. pernix, UniProt Q9YAZ5 1-356, looked up)
chain: MRVEVLDNKRRIVRLRPESEEDLWLLRITLRPGDVVRIRTSRDVPVGSGRKERVVMTLRIRLDSIEFQPFTGKLRISGIVVEGPDEFGVKGRRHSTAVSIGTWLVVERDKGWSEQELERLASGRARGTAVIAAVDYDEFALAVLAGHGMKILEDTSARLPGKDDPSREQEVEKYVDRAAKRIVEEAARHRSPIAVIAGPGQLKTSVAEKVQRAMPSLKVATVDTSMGGVAGVREALRRESVTRILRELSIVEAEGVLEEFLRRIAKSRDTVAYTPGEVLAVARMGAVDTVLLVDTLLHSPDDAVREAVDEALRLVESMGGRVIIIPGDSPAGERLVSFGGVIALLRYPVPQEARRL
notes: aPelota of Aeropyrum pernix
As to B2, the binding result in assay [2] is on record as “binds”.

B3: N-terminal MBP fused with the C-terminal 15 amino acid residues of A. pernix aP1 (MBP-ApeP1C15) (domain or fragment)
chain: EEEVDLSGLSGMFGF
notes: Vector pMAL-c4x, EcoRI-PstI; not shown: MBP, N-terminal, kept
Turning to B3, in assay [3], the binding result was “binds”.

B4: C-terminal 14-mer peptide of P. horikoshii aP1 (PhoP1C14), FITC-labelled (peptide)
peptide: {FITC′}-SEEEALAGLSALFG
notes: C-terminal 14 residues of P. horikoshii ribosomal stalk protein aP1 (last residues L106, F107, G108); also called WT; C-terminal peptide; source: synthetic peptide (Hokkaido System Science)
What is called Kd is the equilibrium constant for the complex coming apart. Higher therefore signals lower affinity. For B4, the Kd in assay [4] is 10.4 µM; in assay [5] it was 23.6 µM.

B5: maltose-binding protein fused to the C-terminal 14 amino acid sequence of PhoP1 (MBP-PhoP1C14) (domain or fragment, P. horikoshii)
chain: SEEEALAGLSALFG
notes: C-terminal 14 residues of P. horikoshii ribosomal stalk protein aP1; made by removing residues 61-94 from pMAL-c4x-aP1[61-108]; the 14 residues are identical in both species; Vector pMAL-c4x; also called MBP-PfuP1C14; not shown: MBP, N-terminal, kept
Consider B5, for which the binding result in assay [1] was “binds”.

B6: C-terminal 17-mer peptide of A. pernix aP1 (ApeP1C17) (peptide)
peptide: KKEEEVDLSGLSGMFGF
notes: C-terminal 17 residues of Aeropyrum pernix ribosomal stalk protein aP1 (ends at F111); also called aP1C17; aP1-CTD; source: synthetic peptide (Hokkaido System Science)
As for B6, the binding result in assay [2] is listed as “binds”.
